Laboratory results from patent publication CN117886935A (BEIJING KENUO XINCHENG TECH CO LTD, dated 2024).

Tests used:
[1] = target: T1, 人CSF-1R-his重组蛋白 (human CSF-1R-his recombinant protein) (human, UniProt P07333 20-512, limits assumed); test: BLI (ForteBio), antibody on AHC probe, CSF-1R-his 60 nM, 1:1 fit
T1 construct: Analyte of the ForteBio assay, 60 nM; also called CD115; M-CSF-R; not shown: His tag

CSF-1R-mFc [2] = target: T2, CSF-1R-mFc (human, UniProt P07333 20-512, limits assumed); test: competition ELISA: human IL-34 coated, CSF-1R-mFc 0.15 μg/ml premixed with antibody
T2 construct: not shown: mouse Fc (mFc)
T2 sequence (P07333 20-512 limits assumed): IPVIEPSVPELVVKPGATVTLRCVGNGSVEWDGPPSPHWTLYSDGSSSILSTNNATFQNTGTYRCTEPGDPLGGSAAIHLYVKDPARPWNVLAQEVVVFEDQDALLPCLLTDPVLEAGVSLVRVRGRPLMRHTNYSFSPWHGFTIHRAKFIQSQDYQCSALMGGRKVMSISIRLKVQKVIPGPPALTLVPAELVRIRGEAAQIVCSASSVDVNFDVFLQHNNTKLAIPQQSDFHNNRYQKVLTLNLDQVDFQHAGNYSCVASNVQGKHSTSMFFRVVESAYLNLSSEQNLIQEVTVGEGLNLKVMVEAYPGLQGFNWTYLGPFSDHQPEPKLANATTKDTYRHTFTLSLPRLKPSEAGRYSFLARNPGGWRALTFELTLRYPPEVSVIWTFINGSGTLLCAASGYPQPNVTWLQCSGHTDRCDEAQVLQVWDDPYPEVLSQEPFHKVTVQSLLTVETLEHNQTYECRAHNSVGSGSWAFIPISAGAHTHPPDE

[3] = target: CSF-1R on CSF-1R/SRE-Luc/HEK293 reporter cells (UniProt P07333 20-972, limits assumed); test: cell-based or functional assay
Chain of CSF-1R on CSF-1R/SRE-Luc/HEK293 reporter cells (P07333 20-972 limits assumed): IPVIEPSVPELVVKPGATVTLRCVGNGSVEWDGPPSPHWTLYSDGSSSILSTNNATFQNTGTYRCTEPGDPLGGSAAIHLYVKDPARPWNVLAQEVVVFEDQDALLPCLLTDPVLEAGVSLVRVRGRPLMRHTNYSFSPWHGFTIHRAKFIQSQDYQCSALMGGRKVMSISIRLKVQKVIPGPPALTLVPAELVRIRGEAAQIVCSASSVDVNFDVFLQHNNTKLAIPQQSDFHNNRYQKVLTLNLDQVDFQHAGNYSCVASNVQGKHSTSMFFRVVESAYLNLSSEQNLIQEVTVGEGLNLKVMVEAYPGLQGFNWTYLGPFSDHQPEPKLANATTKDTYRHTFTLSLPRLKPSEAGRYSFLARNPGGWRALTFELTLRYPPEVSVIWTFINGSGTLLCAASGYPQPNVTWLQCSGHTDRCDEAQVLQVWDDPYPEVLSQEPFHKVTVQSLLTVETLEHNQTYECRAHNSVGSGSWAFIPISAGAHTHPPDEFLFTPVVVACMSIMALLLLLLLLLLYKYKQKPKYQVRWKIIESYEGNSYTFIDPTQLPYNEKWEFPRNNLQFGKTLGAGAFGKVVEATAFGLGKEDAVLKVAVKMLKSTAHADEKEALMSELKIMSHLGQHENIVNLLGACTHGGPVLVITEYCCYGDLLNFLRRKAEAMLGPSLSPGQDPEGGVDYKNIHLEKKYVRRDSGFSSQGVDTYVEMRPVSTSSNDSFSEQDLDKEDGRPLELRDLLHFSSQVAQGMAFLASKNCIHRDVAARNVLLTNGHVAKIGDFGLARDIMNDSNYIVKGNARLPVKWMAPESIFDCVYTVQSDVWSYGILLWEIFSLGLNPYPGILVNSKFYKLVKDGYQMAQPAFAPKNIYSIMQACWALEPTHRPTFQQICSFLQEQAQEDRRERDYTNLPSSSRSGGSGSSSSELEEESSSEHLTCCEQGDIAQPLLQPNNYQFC

[4] = target: T3, CSF-1R on rhCSF-1R-CHO cells (human, UniProt P07333 20-972); test: flow cytometry on rhCSF-1R-CHO cells, FITC goat anti-human
T3 construct: whole, on cells; also called 细胞表面CSF-1R; CSF-1R-CHO细胞
T3 sequence (P07333 20-972): as the sequence (P07333 20-972 limits assumed) above

CSF-1R-mFc [5] = target: T2, CSF-1R-mFc; test: competition ELISA: CSF1-His coated, CSF-1R-mFc 0.15 μg/ml premixed with antibody

T1 sequence (P07333 20-512 limits assumed): as the sequence (P07333 20-512 limits assumed) above

- Kd [1]: 2.38 nM
- koff [1]: 0.000228 s⁻¹
- kon [1]: 95800 M⁻¹ s⁻¹
- IC50 (CSF-1R-mFc [2]): ~0.752 nM
- IC50, inhibition of CSF-1-stimulated (7.2 ng/ml) SRE-Luc reporter in CSF-1R/SRE-Luc/HEK293 cells [3]: 0.21 µg/mL
- IC50, inhibition of IL-34-stimulated (85.06 ng/ml) SRE-Luc reporter in CSF-1R/SRE-Luc/HEK293 cells [3]: 0.34 µg/mL
- EC50 [4]: 0.109 µg/mL
- IC50 (CSF-1R-mFc [5]): 0.3 nM
B1: Cabiralizumab (FPA-008) (antibody, V domains shown)
VH: QVQLVQSGAEVKKPGSSVKVSCKASGYTFTDNYMIWVRQAPGQGLEWMGDINPYNGGTTFNQKFKGRVTITADKSTSTAYMELSSLRSEDTAVYYCARESPYFSNLYVMDYWGQGTLVTVSS
VL: EIVLTQSPATLSLSPGERATLSCKASQSVDYDGDNYMNWYQQKPGQAPRLLIYAASNLESGIPARFSGSGSGTDFTLTISSLEPEDFAVYYCHLSNEDLSTFGGGTKVEIK
notes: Control antibody, synthesised after CN107011438 A; also called Cabirlizumab; 对照抗体
